Reference: patent US20250333760A1, “TEMPERATURE-SENSITIVE NEGATIVE-STRAND RNA VIRUS OR VIRUS VECTOR AND RNA GENOME THEREOF” (REPLI-TECH CO., LTD., priority 2021, published 2025)

Tested on: HeLa cells
Test: Relative fluorescence intensity of EmGFP having degron (DD tag and mutants) added, expressed from SeV in HeLa cells
Type: cell-based
Details: for Relative fluorescence intensity of EmGFP having degron added thereto, Shield1: 1 μM of Shield-1; for Relative fluorescence intensity of EmGFP having degron added thereto, Shield1 / Relative fluorescence intensity of EmGFP having degron added thereto, dTAG-13 / Relative fluorescence intensity of EmGFP having degron added thereto, (—): 3 days after infection, MOI=10; for Relative fluorescence intensity of EmGFP having degron added thereto, dTAG-13: 5 μM of dTAG-13; for Relative fluorescence intensity of EmGFP having degron added thereto, (—): no Shield-1 or dTAG-13; for Shield1/(—) / Shield1/dTAG-13: ratio of relative fluorescence intensities
From the text: The addition of a proteolytic tag (degron) to a P protein can facilitate the elimination of a SeV. A DD tag is a type of proteolytic tag (see, for example, US 2009/0215169 A). The DD tag (see SEQ ID NO: 18) is a protein of 107 amino acids in length, obtained by introducing F36V and L106P into FKBP12. Adding a low molecular weight compound, Shield-1 provides stabilization, and adding dTAG-13 also promotes degradation of the protein fused with the tag. In the present Example, a DD mutant (DDm; see SEQ ID NO: 19) having 11 mutations (4I, 18K, 36L, 501, 57K, 59F, 63A, 68L, 90V, 981, and 105R) in a DD tag was constructed. In the present Example, in order to investigate the proteolysis-promoting effect of the DDm, the DD tag and its mutants (including the DDm) were added to EmGFP at its C-terminal and loaded at the + position of the SeV vector (having the above mutation described in WO 2003/025570). HeLa cells were infected with the resulting SeV (MOI=10). On the day after infection, 1 μM of Shield-1 or 5 μM of dTAG-13 was added thereto, and the fluorescence from the cell was observed 3 days after infection. When a DDrs tag having the amino acid sequence set forth in SEQ ID NO: 28 was constructed and added to EmGFP at its C-terminal, the effect of stabilizing EmGFP by Sheild-1 was not obtained and the fluorescence intensity was only about 20% of that of a DD-tagged EmGFP (FIG. 8).

B1: DDm (protein)
chain: GVQIETISPGDGRTFPKKGQTCVVHYTGMLEDGKKLDSSRDRNKPFKFMIGKQEVIKGFEEGAAQMSLGQRAKLTISPDYAYGATGHPGVIPPHATLIFDVELLRPE
In the case of B1, the “Relative fluorescence intensity of EmGFP having degron added thereto, Shield1” value (37° C.) is reported as 140.4%, the “Relative fluorescence intensity of EmGFP having degron added thereto, dTAG-13” value (37° C.) is reported as 0.478% and the “Relative fluorescence intensity of EmGFP having degron added thereto, (—)” value (37° C.) is reported as 15.0%. For the same molecule, the “Shield1/(—)” value (37° C.) was 9.39, the Shield1/dTAG-13 (37° C.) was 293.9 and the “Relative fluorescence intensity of EmGFP having degron added thereto, Shield1” value (38.5° C.) was 153%. The “Relative fluorescence intensity of EmGFP having degron added thereto, dTAG-13” value (38.5° C.) was 0.05%, the “Relative fluorescence intensity of EmGFP having degron added thereto, (—)” value (38.5° C.) was 2.5% and the “Shield1/(—)” value (38.5° C.) was 61.47. For the same molecule, the Shield1/dTAG-13 (38.5° C.) was 3181.7 and the “ratio of Shield1/dTAG-13 (in words)” value (Tables 6 and 7, 37° C. and 38.5° C.) was “significantly improved”.
